Results published in PMC12483203.

Target: Hu-1 G614 S-6P homotrimer (SARS-CoV-2 Wuhan-Hu-1 D614G spike ectodomain, hexaproline-stabilised) (SARS-CoV-2) (UniProt P0DTC2)
Assay: SEC

“Hu-1 G614 S-6P homotrimer (SARS-CoV-2 Wuhan-Hu-1 D614G spike ectodomain, hexaproline-stabilised) (from UniProt P0DTC2 14-1211) (natural protein)” was tested, and the stoichiometry N was 3.
